The chains are these.
B1: TPR 5TU (parent)
chain: GGAUCUUCUCGAUCUAACAAAAAAGACAAAUCUGCCACAAAGCUUGAGAGCAUCUUCGGAUGCAGAGGCGGCAGCCUUCGGUGGCGCGAUAGCGCCAACGUUCUCAACUAUGACACGCAAAACGCGUGCUCCGUUGAAUGGAGUUUAUCAUG

Variants at the floor of the assay were thinned out. Where only a bound is given, the exact number is not on record here.

This data set covers variants of B1. Kind of data set: polymerase ribozyme fitness, log enrichment relative to wild type (log ratio); higher = more active; in vitro selection for triplet polymerase activity. In a few lines: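 Mutant libraries for each subunit of a heterodimeric triplet polymerase ribozyme were made by PCR and then transcribed. Each library underwent one round of in vitro selection in triplicate: annealing with a biotinylated primer, the partner subunit and triplets, frozen incubation at −7 °C, gel excision of extended constructs, streptavidin-bead capture and RT-PCR. Input and output libraries were Illumina-sequenced, and only genotypes with ≥10 input reads and ≥1 read per output were kept. Fitness is the logarithm, base 2, of genotype enrichment over wild-type enrichment, computed from inverse-variance-weighted replicate averages.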
On to GGAUCGUCUCGAUCUAACAAAAAAGACAAAUCUGCCACAAAGCUUGAGAGCAUCUUCGGAUGCAGAGGCGGCAGCCUUCAGGGGCGCGAUAGCGCCAACGUUCUCAACUAUGACACGCAAAACGCGUGCUCCGUUGAAUGUAGUUUAUCAUG [U6G G80A U82G G141U], for which the “polymerase ribozyme fitness (log ratio)” value was 0.34. Next, GGAUCGUGUCGAUCUAAUAAAAAAGACAAAUCUGCCACAAAGCUUGAGAGCAUUUUCGGAUGCAGAGGCGGCAGCCUUCGGUGGCGCGAUAGCGCCAACGUUCUCAACUAUGACACGCAAAACGCGUGCUUCGUUGAAUGGAGUUUAUCAUG [U6G C8G C18U C54U C131U]: -3.56. To GGAUCUACUCGAUCUAACAAAAACGACAAAUCUGCCACAAAGCUUGCGAGCAUCUUCGGAUGCAGAGGCGGCAGCCUUCGGUGGCGCGAUAGCGCCAACGUUCUCAACCAUGACACGCAUAACGCGUGCUCCGUUGAAUGGAGUUUAUCAUG [U7A A24C A47C U109C A120U] belongs not above -4.2. As to GGAUCGUCUCGAUCUAAGAAAAAAGACAAAUCUGCCACAAAGCUUGAGAGCAUCUUCGGAUGCAGCGCCGGCAGCCUUCGGUGGCGCCAUAGCGCCAACGUUCUCAACUAUGACACGCAAAACGCGUGCUCCGUUGAAUGGAGUUUAUCAUC [U6G C18G A66C G68C G88C G152C], the “polymerase ribozyme fitness (log ratio)” value is not above -4.2. Next, GGAUCUACUCGAUCUAACAAAGAAGACAAAUCUGCCACAAAGCUUGAGAGCAUCUUCGGAUGCAGAGGCGGCAGCCCUCGGUGGCGCGAUAGCGCCAACGUUCUCAACUAUGACACGCAAAACUCGUGCUCAGUUGAAUGGAGUUUAUCAUG [U7A A22G U77C G124U C132A]: not above -4.2. To GGAUCGUCUCGAUCUAACAAAAAAGACAAAUCUGCCACAAAGCUUGAGAGCAUCUUCGGAUGCAGAGGCGGCAGCCUUAGGUGCCGCGAUAGCGCCAACGUUCUCAACUAUGACACGCAAAACGCGUGCUCCGUUGAAUGGAGUUUAUCAUA [U6G C79A G84C G152A] belongs not above -4.2; to GGAUCGUCUCGAUGUCACAUUAAAGACAAAUCUGCCACAAAACUUGAGAGCAUCUUCGGAAGCGGAGGCGACAGCCUUCGGUGGUGUGAUAGCGCCAACGUUCUCAACUAUGACACGCAAAACGCGUGUUCCGUUAAAUGGAGUUUAUCAUG [U6G C14G A16C A20U A21U G42A U61A A64G G71A C85U C87U C129U G136A], not above -4.2; to GGAUCGUCUCGAUCUAACAAAAAAGACAAAUCUGCCACAAAGCUUGAGACCAUCUACGGAUGCAAAGGCGGCCGCCUUCGGUGGCGCGAUAGCGCUAACGUUCUCAACUAUGACACGCAAAACGCGUGCUCCGUUGAACGGAGUUUAUCAUG [U6G G50C U56A G65A A73C C96U U139C], not above -4.2. To GGAUCUACUCGAUCUAACAACAAAGACAAAUCUGCCACAAAGCUUGAGAGCAGCUACCGUUGCAGAGGCGGCAGACUUCGGUGGCGCGAUAGCGCCAACGUUCUCAACUAUGACACGCAAAACGCGUGCUCCGUUGAAUGGAGUUUAUCAUG [U7A A21C U53G U56A G58C A60U C75A] belongs not above -4.2; to GGAUCGUCUCGAUCUAACAAAAAAGACAAAUCUGCCACAAAGCUUGAGAGCAUCUUCGGAUGCAGAGGCGGCAGCCUUCCGUGGCGCGAUAGCGCCAACGUUCUCAACUAUGACACGCAAAACGCGUGCUCCGUUGAAUGGAGUUUAUAAUG [U6G G80C C149A], not above -4.2. Regarding GGAUCGUCUCGAUCUAACAAAAAAGACAAAUCUGCCACAAAGCUUGAGAGCAUCUUCGGAUGCAGAGGCGGCAGCCUUCGGUGGCGCGAUAGCCCCAACGUUCUCAACUAUGACACGCAAAAAGCGUGCUCCGUUGAAUGGAGUUUAUCAUG [U6G G94C C123A], the “polymerase ribozyme fitness (log ratio)” value worked out at 0.0628. Turning to GGAUCGUCUGGAUCUAACAAAAAAGACAAAUCUGCCACAAAGCUUGAGAGCAUCUUCGGAUGCAGAGGCGGCAGCCUUCGGUGGCGCGAUAGCGCCAACGUUCUCAACUAUGACACGCAAAACGCGUGCUCCGUUGAAUGGAGUUUAUCAUG [U6G C10G], the “polymerase ribozyme fitness (log ratio)” value was -3.01. With GGAUCGUCUCGAUCUAACAAAAAAGACAAAUCUGCCACAAAGCUUGAGAGCAUUUUCGGAUGCAGAGGCGGCAGCCUUCGAUGGCGCGAUAGCGCCAACGUUCUCAACUAUGACACGCAAAACGCGUGCUCCGUGGAAUGGAGUUUAUCAUG [U6G C54U G81A U135G], the “polymerase ribozyme fitness (log ratio)” value is -3.31. GGAUCUACUCGAUCUAACAAACAAGACAAAUCUGCCACAAAGCUUGAGAGCAUCUUCGGAUGCAGAGGCGGCAGCCUUCGGUGGUGCGAUAGCGCCAACGUUCUCAACUAUGACACGCAAAACGCGUGCUCCGUUGAAUGGAGUUUAUCAUG [U7A A22C C85U]: the “polymerase ribozyme fitness (log ratio)” value is -4.04. Regarding GGAUCGUCUCGAUCUAACAAAAAAGACAAAUCUGCCACAAAGCUUGAGAUCAUCUUCGGAUGCAGAGGCGGCAGCCUUCGGUGGUGCGAUAGCGCCAACGUUCUCAACUAUGACAUGCAAAACGCGUGCUCCGUUGAAUGGAGUUUAUCAUU [U6G G50U C85U C116U G152U], the “polymerase ribozyme fitness (log ratio)” value was -3.7.

As for GGAUCGUCUCGAUCUAACAAAAAAGACAAAUCUGCCACAAAGCUUAAGAGCAUCUUCGGAUGCAGAGGCGGCAGCCUUCGGUGGCGCGAUAGCGCCAACGUUCUCAACUAUGUCACGCAAAACGUGUGCUCCGUUUAAUGGAGUUCAUCAUG [U6G G46A A113U C125U G136U U146C], the “polymerase ribozyme fitness (log ratio)” value was not above -4.2. Next, GGAUCGUCUCGAUCUAAGAAAAAAGACAAAUCUGCUACAAAGCUUGAGAGCAUCUUCGGAUGCAGAGGCGGCAGCCUUCGGUGGCGCGAUAGCGCGAGCGUUCUCAACUAUGACACGCAAAACGCGUGCUCCGUUGAAUGGAGUUUAUCAUG [U6G C18G C36U C96G A98G]: -2.92; GGAUCGUCUCCAUUUAACAAAAAAGACAAAUCUGCCACAAAGCUUGAGAGCAUCUUCGGAUGCAGAGGCGGCAGCCUUCGGUGGCGCGAUAGAGCCAACGUUCUCAACUAUGACACGCAAAACGCGUGCUCCGUUGAAUGGAGUUUAUCAUG [U6G G11C C14U C93A]: not above -4.2; GGAUCGUCUCGAUCUAACAAAAAAGACAAACCUGCCACAAAGCUUGAGAGCAUCAUCGGAUGCAGAGGCGGCAGCCUUCGGUGGCGCGAUAGCGUCAGCGUUCUCAACUAUGACACGCAAAACGCGUGCUCCGUUGAAUGCAGUUUAUCAUG [U6G U31C U55A C95U A98G G141C]: -1.61.
